From patent publication US20250326836A1 (SHIONOGI, published 2025)
Substitutions are numbered along the chain they refer to.

B1: m2F8 (antibody, V domains shown)
VH: QVQLQQSGAELVKPGASVKISCKASGYEFSYYWMNWVKQRPGKGLEWIGQIYPGDGDTNYNGKFKGKATLAAGKSSSTAYMQLSSLTSEDSAVYFCARSHGNYMIYWGQGTSVTVSS
VL: QIVLTQSPAIMSASLGERITLTCIASSSVSSSYLHWYQQKPGSSPKLWIYSTSNLASGVPTRFSGSGSGTSFSLTISTMEAEDAATYYCHQYHRSPRTFGGGTKLEIKR
B2: m26C7 (antibody, V domains shown)
VH: B1 VH with A71T, G73D, I105A
VL: B1 VL with I24T
B3: m24C4 (antibody, V domains shown)
VH: B1 VH with A71T, G73D, I105H
VL: B1 VL with I24T
B4: m4D7 (antibody, V domains shown)
VH: B1 VH with L70V, A71T, G73D, R98K, I105D
VL: B1 VL with I24T
B5: mIML1-2 (antibody, V domains shown)
VH: QVQLQQSGAELVKPGASVKIACKASGYEFNYYWMNWVKQRPGKGLEWIGQIYPGDGDNKYNGKFKGKATLTADKSSSTVYMQLNSLTSEDSAVYFCARTGSGRFAYWGQGTLVTVSA
VL: QIVLTQSPAIMSASPGEKVTMTCRASSSVSSSYLHWYQQKSGASPKLWIYSTSNLASGVPARFSGSGSGTSYSLTITSVEAEDVATYYCQQYSGFPLTFGSGTKLEIKR
B6: Nimacimab (BIRD ROCK BIO) (antibody, V domains shown)
VH: QVQLVQSGAEVKKPGSSVKVSCKASGYEFSYYWMNWVRQAPGQGLEWMGQIYPGDGETKYAQKFQGRVTITADKSTSTAYMELSSLRSEDTAVYYCARSHGNYLPYWGQGTLVTVSS
VL: EIVLTQSPATLSLSPGERATLSCRASQSVSSSYLHWYQQKPGQAPRLLIYSTSNLASGIPARFSGSGSGTDFTLTISRLEPEDFAVYYCHQYHRSPPTFGQGTKVEIK
B7: h2F8 (antibody, V domains shown)
VH: QVQLVQSGAEVKKPGASVKVSCKASGYEFSYYWMNWVRQAPGQGLEWMGQIYPGDGDTNYNGKFKGRVTMTRDTSTSTVYMELSSLRSEDTAVYYCARSHGNYMIYWGQGTTVTVSS
VL: EIVLTQSPGTLSLSPGERATLSCIASSSVSSSYLHWYQQKPGQAPRLLIHSTSNLASGIPERFSGSGSGPDFTLTISRLKPEDFAVYYCHQYHRSPRTFGQGTKVEIKR
B8: hIML1-2-OP1 (antibody, V domains shown)
VH: QVQLVQSGAEVKKPGASVKVSCKASGYEFNYYWMNWVRQAPGQGLEWMGQIYPGDGDNRYNGKFKGRVTMTRDTSTSTVYMELSSLRSEDTAVYYCARTGSGRFAYWGQGTLVTVSS
VL: DIQMTQSPSSLSASVGDRVTITCKASSSVSTRYLHWYQQKPGKAPKLLIYGTSNIASGVPSRFSGSGSGTDFTLTISSLQPEDVATYYCQQYTAFPLTFGQGTKVEIKR

The binders below were run against T1, human cannabinoid type 1 (CB1) receptor (human, UniProt P21554 1-472) (assay: cell-based or functional assay).
T1 sequence (P21554 whole entry): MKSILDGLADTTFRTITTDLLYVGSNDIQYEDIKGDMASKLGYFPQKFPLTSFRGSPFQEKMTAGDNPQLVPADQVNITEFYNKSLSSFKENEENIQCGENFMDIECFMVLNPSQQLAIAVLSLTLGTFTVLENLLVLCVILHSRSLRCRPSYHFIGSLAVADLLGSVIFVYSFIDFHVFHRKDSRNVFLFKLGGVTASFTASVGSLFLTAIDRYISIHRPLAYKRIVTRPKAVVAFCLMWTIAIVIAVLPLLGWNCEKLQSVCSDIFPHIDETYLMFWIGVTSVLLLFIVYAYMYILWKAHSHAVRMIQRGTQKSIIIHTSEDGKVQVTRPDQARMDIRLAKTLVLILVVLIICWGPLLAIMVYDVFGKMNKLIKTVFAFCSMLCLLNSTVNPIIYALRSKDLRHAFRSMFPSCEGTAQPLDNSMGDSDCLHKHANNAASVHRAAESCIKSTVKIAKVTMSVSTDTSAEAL

| Ca^2+ influx assay IC50 [nM] | cAMP assay IC50 [nM] | Binder |
| --- | --- | --- |
| 0.9 | 4.9 | B1 |
| 1.85 | 6.5 | B2 |
| 1.22 | 5 | B3 |
| 1.29 | 3.9 | B4 |
| 1.77 | 5.9 | B5 |

Target: T1, human cannabinoid type 1 (CB1) receptor
Assay: cell-based or functional assay
Remark: another data set of the same source

| Ca^2+ influx assay IC50 [nM] | cAMP assay IC50 [nM] | Binder |
| --- | --- | --- |
| 2.62 | 28.6 | B6 |
| 2.03 | 5.9 | B7 |
| 0.55 | 8.5 | B8 |
